Results: patent publication US9283300B2, “Use of midkine protein and the protein-containing medical device” (GENERAL REGENERATIVES, LTD, priority 2009, dated 2016)

Legend:
[1] = test system: ACLT-induced rat knee cartilage damage; assay: Osteoarthritis induced by anterior cruciate ligament transection (ACLT) of rat knee, intra-articular rhMK; format: in vivo, SD rats
Procedure: Method. 7-week-old male SD rats (250-330 g weight) were anesthetized with 3% pentobarbital sodium (30 mg/kg) by intraperitoneal injection. After anesthesia, the skin was prepared on both sides of the knees. With conventional surgical sterilization and under sterile conditions, the skin and subcutaneous tissue of the knees was cut open from the middle of front knee. The joint capsule was cut along the inner side of the white patellar tendon resulting in patellar dislocation. The anterior cruciate ligament was identified and cut with ophthalmic scissors. The knee was straightened, the patella was relocated, and the wound was sutured layer by layer. Amikacin (100,000 U/ml, injection concentration of 10 mg/kg, a dose of 1 μl/10 g body weight) was injected every day for 4 days to prevent the wound site infection. 14 weeks after the surgery, saline or rhMK was injected into the knee-articular cavity. The rats in sham group without ACLT surgery were not treated; The rats in the ACLT/saline group were injected with 100 μl saline; The rats in ACLT/rhMK-L group were injected with 100 μl rhMK (58.3 μg/kg); In ACLT/rhMK-H group, 100 μl rhMK (525 μg/kg) was given. The injections were given three times one week and continued for two weeks. The rats were maintained in cages with free movement. The rats were sacrificed 2 or 6 weeks after the initiation of the treatments. […]

[2] = test system: dedifferentiated rat chondrocytes in high-density culture; assay: Redifferentiation of dedifferentiated chondrocytes in high-density culture (Col2a1 expression); format: cell-based
Procedure: 5. High density culture of chondrocytes. The chondrocytes were harvested and suspended in DMEM containing 10% FBS. The cells were seeded at 4×10^5 cells/well into a 24-well plate, and experiment was divided into two groups: control group and experimental group (with 3 μg/m. 1 rhMK). When the cells reached confluence, they were cultured for additional 14 days. The culture medium was changed every two days. After the culture, some of the cells were collected for RNA extraction, and some were treated with trypsin and 0.2% type II collagenase at 37° C. for 30 min. The cells were cytospined onto glass slide and stored at −80° C. 6. Immunohistochemical staining. The cytospined glass slides covered with the cultured chondrocytes under various conditions were stored at −80° C. They were fixed in cold acetone for 10 min, treated sequentially in PBS for 5 min, in 3% H2O2 (in ddH2O) for 10 min at room temperature, and finally in ddH2O for 5 min. The slides were covered with 5% BSA (bovine serum albumine) for 20 min at room temperature. The excess serum was removed and the sections were covered with antibody against type II collagen (dilution 1:100) for 30 min at 37° C. […] RNA extraction and semi-quantitative PCR. […] PCR products were separated on 1.5% (w/v) agarose gels and quantified after staining with ethidium bromide in comparison with internal control gene expression of β-actin.

B1: rhMK: recombinant human midkine mature protein (SEQ ID NO.1) expressed in E. coli and purified by ion-exchange chromatography (protein, listed as Homo sapiens)
chain: MKKKDKVKKGGPGSECAEWAWGPCTPSSKDCGVGFREGTCGAQTQRIRCRVPCNWKKEFGADCKYKFENWGACDGGTGTKVRQGTLKKARYNAQCQETIRVTKPCTPKTKAKAKAKKGKGKD
histological scores ([1]; ACLT/rhMK groups (58.3 and 525 μg/kg intra-articular) versus ACLT/saline group, P<0.05 Kruskal-wallis Test): statistically lower than that of the ACLT/saline group | regenerated cartilage layer thickness (histology) ([1]; ACLT/rhMK groups versus ACLT/saline group, 18 weeks after ACLT surgery): significantly thicker than that of ACLT/saline group | effect on Col2a1 re-expression ([2]; P3 fibrochondrocytes cultured in high-density): no effect | Col2a1 expression level in high-density cultures with rhMK ([2]; P6 articular chondrocyte and P3 auricular chondrocyte): significantly inhibited
